What is called EC50 is the concentration at which the effect is half-maximal. For orientation: Kd means the concentration at which binding is half-saturated.

The record followed here is US20250215108A1.

Experiment [1] has as its target recombinant hSIRPa-His (Sino Biologicals, reference 11612-H08H) (human) (UniProt P78324). In words: ELISA, immobilized hSIRPa-His, anti-human IgG detection. In general terms: In an ELISA, binding on a coated surface is turned into a signal by an enzyme label.
Experiment [2] addresses SIRPγ on peripheral human CD3+ T cells (human) (UniProt Q9P1W8). In words: flow cytometry on human CD3+ T cells, antibody at 10 micrograms/ml. On the technique in general: A flow cytometer gives signals particle by particle.
Experiment [3] shares this target. The experiment can be described thus: flow cytometry on peripheral human CD3+ T cells, 10 µg/ml; Exp 1 HV1.
Experiment [4] has the same target. In words: flow cytometry on peripheral human CD3+ T cells, 10 µg/ml; Exp 1 HV2.
Experiment [5] deals with SIRPa on human monocytes (human) (UniProt P78324). The experiment can be described thus: flow cytometry on human monocytes v1/v1 (Fc receptors blocked), PE anti-human Fc; readout MFI.
Experiment [6] has as its target recombinant hSIRPb-His (Antibodies-online, reference ABIN3077231) (human) (UniProt Q5TFQ8). The experiment can be described thus: BLI (Blitz): SIRPb-His on Ni-NTA biosensor, antibody at 20 µg/ml; 120 s association, 120 s dissociation.
The target of experiment [7] is SIRPa on human monocytes (human) (UniProt P78324). In words: flow cytometry on human monocytes v1/v1 (Fc receptors blocked), PE anti-human Fc; readout % stained monocytes.
The target of experiment [8] is recombinant hSIRPa-His (Sino Biologicals, reference 11612-H08H) (human) (UniProt P78324). The experiment can be described thus: SPR (Biacore 3000); SIRPa-His immobilised on a CM5 chip (500 RU), antibody injected; 3 min association, 10 min dissociation.
Experiment [9] concerns the target recombinant hSIRPg-His (Sino Biologicals, reference 11828-H08H) (human) (UniProt Q9P1W8). The experiment can be described thus: BLI (Blitz): SIRPg-His on Ni-NTA biosensor, antibody at 10 µg/ml or 20 µg/ml (Example 9); 120 s association, 120 s dissociation.

SIRPγ on peripheral human CD3+ T cells (human), sequence (Q9P1W8 29-387): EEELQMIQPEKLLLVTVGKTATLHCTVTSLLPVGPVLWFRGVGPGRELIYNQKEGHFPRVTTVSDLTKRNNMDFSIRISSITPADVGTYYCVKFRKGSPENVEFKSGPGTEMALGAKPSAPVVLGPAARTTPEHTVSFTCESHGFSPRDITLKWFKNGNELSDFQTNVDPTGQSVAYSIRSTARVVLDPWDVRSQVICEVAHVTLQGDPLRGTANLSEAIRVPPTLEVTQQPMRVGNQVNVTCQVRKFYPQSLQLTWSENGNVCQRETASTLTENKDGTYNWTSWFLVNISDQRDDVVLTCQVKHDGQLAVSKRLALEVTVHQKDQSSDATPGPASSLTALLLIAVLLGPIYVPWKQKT
recombinant hSIRPg-His (Sino Biologicals, reference 11828-H08H) (human), sequence (Q9P1W8 29-360): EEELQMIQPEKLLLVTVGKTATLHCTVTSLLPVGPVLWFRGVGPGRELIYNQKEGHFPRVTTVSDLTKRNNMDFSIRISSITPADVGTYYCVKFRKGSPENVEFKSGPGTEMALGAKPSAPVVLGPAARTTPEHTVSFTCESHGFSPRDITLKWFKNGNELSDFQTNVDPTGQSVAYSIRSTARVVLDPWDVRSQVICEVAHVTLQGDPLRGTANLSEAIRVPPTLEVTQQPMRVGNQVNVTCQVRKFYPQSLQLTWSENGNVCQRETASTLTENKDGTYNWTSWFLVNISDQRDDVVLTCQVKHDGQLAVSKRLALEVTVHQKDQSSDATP
recombinant hSIRPb-His (Antibodies-online, reference ABIN3077231) (human), sequence (Q5TFQ8 30-371): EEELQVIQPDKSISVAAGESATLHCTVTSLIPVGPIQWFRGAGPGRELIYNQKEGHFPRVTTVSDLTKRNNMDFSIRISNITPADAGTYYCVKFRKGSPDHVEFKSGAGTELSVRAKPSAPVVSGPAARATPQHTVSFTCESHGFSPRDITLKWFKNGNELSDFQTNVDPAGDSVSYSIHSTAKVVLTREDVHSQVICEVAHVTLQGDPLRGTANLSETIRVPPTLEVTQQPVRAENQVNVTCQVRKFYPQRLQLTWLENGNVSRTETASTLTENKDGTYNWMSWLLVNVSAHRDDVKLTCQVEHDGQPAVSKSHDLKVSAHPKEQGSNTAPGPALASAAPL

B1: anti-human SIRPa antibody Kwar23 (Creative Biolabs) (antibody, from a related filing, V domains shown)
VH: EVQLQQSGAELVKPGASVKLSCTASGFNIKDYYIHWVQQRTEQGLEWIGRIDPEDGETKYAPKFQDKATITADTSSNTAYLHLSSLTSEDTAVYYCARWGAYWGQGTLVTVSS
VL: QIVLTQSPAIMSASPGEKVTLTCSASSSVSSSYLYWYQQKPGSSPKLWIYSTSNLASGVPARFSGSGSGTSYSLTISSMEAEDAASYFCHQWSSYPRTFGAGTKLELK
On to B1, for which the results for the EC50 in experiment [1], in experiment [5] and in experiment [7] were 0.0033 µg/mL, 0.378 µg/mL and 0.26 µg/mL, respectively. This molecule also displayed a percent of T cells stained in experiment [2] above 70%. In addition, the % of positive T-cells was 80% in experiment [3] and 89.3% in experiment [4]. In addition, the Kd was determined as 2.77 nM in experiment [6], 0.367 nM in experiment [8] and 2.14 nM in experiment [9].
